Assay results from patent JP2014141434A (dated 2014).

T1: ラットROBO4 (pCI−raROBO4導入細胞) (rat, UniProt Q80W87 38-949 at identity 0.93))
T1 construct: also called rat ROBO4; raROBO4
T1 chain: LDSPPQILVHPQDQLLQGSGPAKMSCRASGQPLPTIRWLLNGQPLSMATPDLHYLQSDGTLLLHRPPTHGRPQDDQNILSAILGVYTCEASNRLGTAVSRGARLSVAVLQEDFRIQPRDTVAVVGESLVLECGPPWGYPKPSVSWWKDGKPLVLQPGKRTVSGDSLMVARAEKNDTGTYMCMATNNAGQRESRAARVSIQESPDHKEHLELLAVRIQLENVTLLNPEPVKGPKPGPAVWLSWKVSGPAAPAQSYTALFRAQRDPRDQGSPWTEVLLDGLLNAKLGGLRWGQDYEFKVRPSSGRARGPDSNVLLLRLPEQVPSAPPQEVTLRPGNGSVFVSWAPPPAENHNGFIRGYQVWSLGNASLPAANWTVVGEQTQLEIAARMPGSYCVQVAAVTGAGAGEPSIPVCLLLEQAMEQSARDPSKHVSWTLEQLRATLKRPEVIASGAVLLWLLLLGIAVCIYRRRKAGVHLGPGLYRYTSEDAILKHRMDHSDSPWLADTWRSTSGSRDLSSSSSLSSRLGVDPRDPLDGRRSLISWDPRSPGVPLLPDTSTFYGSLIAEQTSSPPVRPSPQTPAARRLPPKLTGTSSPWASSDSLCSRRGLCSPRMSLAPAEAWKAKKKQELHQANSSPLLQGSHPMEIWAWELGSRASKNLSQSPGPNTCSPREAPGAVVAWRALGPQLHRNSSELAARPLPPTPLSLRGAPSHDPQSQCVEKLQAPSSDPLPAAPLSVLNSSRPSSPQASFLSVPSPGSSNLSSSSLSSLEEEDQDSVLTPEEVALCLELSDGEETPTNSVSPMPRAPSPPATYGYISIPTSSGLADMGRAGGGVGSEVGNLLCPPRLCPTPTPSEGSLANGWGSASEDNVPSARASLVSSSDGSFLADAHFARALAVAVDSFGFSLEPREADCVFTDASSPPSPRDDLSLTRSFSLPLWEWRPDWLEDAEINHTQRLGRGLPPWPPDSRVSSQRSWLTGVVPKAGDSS

T2: N末端FLAG−tag付加型カニクイザルROBO4 cynoROBO4−1 (cynomolgus monkey, UniProt Q8WZ75 28-1007 (human entry))
T2 construct: also called pCI−FLAG−cynoROBO4−1
T2 chain: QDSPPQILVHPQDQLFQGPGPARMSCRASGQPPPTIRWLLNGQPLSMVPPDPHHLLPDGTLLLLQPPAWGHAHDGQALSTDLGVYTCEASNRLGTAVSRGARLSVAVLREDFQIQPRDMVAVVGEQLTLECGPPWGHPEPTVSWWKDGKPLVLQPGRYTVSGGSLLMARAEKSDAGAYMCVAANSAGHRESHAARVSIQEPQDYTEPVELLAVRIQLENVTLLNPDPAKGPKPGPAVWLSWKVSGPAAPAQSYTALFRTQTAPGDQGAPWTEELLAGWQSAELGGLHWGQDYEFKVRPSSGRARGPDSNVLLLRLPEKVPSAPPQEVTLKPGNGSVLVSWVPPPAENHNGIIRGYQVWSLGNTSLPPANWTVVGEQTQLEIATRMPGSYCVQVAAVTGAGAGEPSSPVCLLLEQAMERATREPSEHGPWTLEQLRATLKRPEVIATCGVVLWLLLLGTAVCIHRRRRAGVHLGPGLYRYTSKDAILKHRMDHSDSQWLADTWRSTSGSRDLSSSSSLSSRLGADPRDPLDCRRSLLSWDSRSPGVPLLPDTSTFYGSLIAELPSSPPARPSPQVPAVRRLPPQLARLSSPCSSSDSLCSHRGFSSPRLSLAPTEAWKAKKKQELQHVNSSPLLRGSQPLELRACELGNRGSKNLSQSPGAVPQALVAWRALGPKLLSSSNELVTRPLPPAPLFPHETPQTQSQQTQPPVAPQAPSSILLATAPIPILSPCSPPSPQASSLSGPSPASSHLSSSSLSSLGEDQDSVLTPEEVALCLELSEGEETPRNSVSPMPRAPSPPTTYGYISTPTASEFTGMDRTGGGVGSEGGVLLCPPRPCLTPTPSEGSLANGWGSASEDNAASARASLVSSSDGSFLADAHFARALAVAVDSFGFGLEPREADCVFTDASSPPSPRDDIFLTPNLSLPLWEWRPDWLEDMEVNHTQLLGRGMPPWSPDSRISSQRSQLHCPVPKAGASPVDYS

T3: rROBO4−ECD (ヒトROBO4細胞外領域ポリペプチド) (human, UniProt Q8WZ75 28-461)
T3 construct: It was cloned in pEF6/V5-His-TOPO; also called ヒトROBO4−ECD; rROBO4-ECD
T3 sequence: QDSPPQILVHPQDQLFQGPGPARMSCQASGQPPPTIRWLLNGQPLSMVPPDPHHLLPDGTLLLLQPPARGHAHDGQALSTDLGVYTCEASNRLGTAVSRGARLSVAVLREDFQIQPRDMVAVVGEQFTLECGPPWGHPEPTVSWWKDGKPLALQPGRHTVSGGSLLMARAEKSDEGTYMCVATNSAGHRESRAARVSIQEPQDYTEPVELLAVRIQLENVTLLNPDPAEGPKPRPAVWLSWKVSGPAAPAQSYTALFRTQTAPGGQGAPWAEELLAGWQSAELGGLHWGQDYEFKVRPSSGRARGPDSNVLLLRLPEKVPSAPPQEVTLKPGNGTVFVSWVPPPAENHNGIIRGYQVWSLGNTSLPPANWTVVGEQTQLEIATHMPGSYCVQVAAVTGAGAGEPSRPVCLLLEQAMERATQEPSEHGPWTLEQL


Experiments:
[1] = target: T1, ラットROBO4 (pCI−raROBO4導入細胞); assay: flow cytometry, transfected HEK293 cells
[2] = target: T2, N末端FLAG−tag付加型カニクイザルROBO4 cynoROBO4−1; assay: flow cytometry, transfected HEK293 cells
[3] = target: T3, rROBO4−ECD (ヒトROBO4細胞外領域ポリペプチド); assay: SPR, Biacore 3000; antibody captured by anti-human IgG on CM5 chip, rROBO4-ECD (0.1-200 nM) as analyte, 1:1 model

binding result [2] | Kd [3] | Binder | binding result [1]
binds | 1.7 nM | ヒト化MAb1抗体 H−2143 (antibody, human IgG2, kappa, V domains shown, Humanised IgG2 / kappa; also called H-2143; hMAb1-H4 / hMAb1-L2) VH: EVQLVESGGGLVQPGGSLRLSCAASGFTFSTYAMSWVRQAPGKRLEWVATISQGGTYTYYPDSVKGRFTISRDNAKNTLYLQMNSLRAEDTAVYYCARLIYYDYLDYWGQGTLVTVSS VL: DIVMTQSPLSLPVTLGEPASISCRSSQSLENENKNLYLNWYLQKPGQSPQLLIYRVSNRFSGVPDRFSGSGSGTDFTLKISRVEAEDVGVYYCLQVTHVPWTFGPGTKVDIKR | no binding (tested: 10 μg/mL (method of 4)-3-2))
binds | 3.5 nM | ヒト化MAb1抗体 H−1143 (antibody, human IgG2, kappa, V domains shown, Humanised IgG2 / kappa; also called H-1143; hMAb1-H2 / hMAb1-L2) VH: EVQLVESGGGLVQPGGSLRLSCAASGFTFSTYAMSWVRQAPGKGLEWVATISQGGTYTYYPDSVKGRFTISRDNAKNTLYLQMNSLRAEDTAVYYCARLIYYDYLDYWGQGTLVTVSS VL: DIVMTQSPLSLPVTLGEPASISCRSSQSLENENKNLYLNWYLQKPGQSPQLLIYRVSNRFSGVPDRFSGSGSGTDFTLKISRVEAEDVGVYYCLQVTHVPWTFGPGTKVDIKR | no binding (tested: 10 μg/mL (method of 4)-3-2))
binds | 1.8 nM | ヒト化MAb1抗体 H−2140 (antibody, human IgG2, kappa, V domains shown, Humanised IgG2 / kappa; also called H-2140; hMAb1-H4 / hMAb1-L1) VH: EVQLVESGGGLVQPGGSLRLSCAASGFTFSTYAMSWVRQAPGKRLEWVATISQGGTYTYYPDSVKGRFTISRDNAKNTLYLQMNSLRAEDTAVYYCARLIYYDYLDYWGQGTLVTVSS VL: DIVMTQSPLSLPVTLGEPASISCRSSQSLENSNGNTYLNWYLQKPGQSPQLLIYRVSNRFSGVPDRFSGSGSGTDFTLKISRVEAEDVGVYYCLQVTHVPWTFGPGTKVDIKR | no binding (tested: 10 μg/mL (method of 4)-3-2))
– | – | 抗ROBO4マウスモノクローナル抗体 MAb1 (antibody, V domains shown, Mouse IgG1 (gamma 1) / kappa from a hybridoma; The constant regions are not in the listing; also called MAb1) VH: EVQLVESGGGLVKPGGSLKLSCAASGFTFSTYAMSWVRQTPEKRLEWVATISNGGTYTYYPDSVKGRFTISRDNAENTLYLQMSSLRSEDTAMYFCARLIYYDYLDYWGHGTTLTVSS VL: DAVMTQTPLSLPVSLGDQASISCRSSQSLENSNGNTYLNWYFQKPGQSPQLLIYRVSNRFSGVLDRFSGSGSGTDFTLKISRVEAEDFGVYFCLQVTHVPWTFGGGTKLEIKR | no binding (tested: 10 μg/mL)
